Reference: patent US11708413B2 (priority 2016, dated 2023)

Legend:
[1] = target: T1, CD74 on RPMI-8226 (MM) cells (Homo sapiens, UniProt P04233); test: Cell binding assay (FACS), RPMI-8226 (MM); conditions: NB = no binding
T1 construct: endogenous in cells; host or cells: RPMI-8226
T1 sequence (P04233 1-296): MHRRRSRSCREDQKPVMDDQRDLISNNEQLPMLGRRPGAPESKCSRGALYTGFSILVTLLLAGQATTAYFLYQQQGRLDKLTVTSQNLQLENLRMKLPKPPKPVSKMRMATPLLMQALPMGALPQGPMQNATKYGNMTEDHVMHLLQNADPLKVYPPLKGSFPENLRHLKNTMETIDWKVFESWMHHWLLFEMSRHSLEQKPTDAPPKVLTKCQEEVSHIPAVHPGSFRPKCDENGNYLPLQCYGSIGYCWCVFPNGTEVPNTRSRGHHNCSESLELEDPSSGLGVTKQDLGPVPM
Protocol: (§1) Cell lines tested included B-lymphoma, multiple myeloma, and leukemia cells.
(§2) Cell lines were maintained in RPMI, high glucose (Cellgro-Mediatech; Manassas, Va.) supplemented with 20% heat-inactivated fetal bovine serum (Hyclone; Thermo Scientific; Waltham, Mass.), 2 mM glutamax (Invitrogen; Carlsbad, Calif.) and 1×Pencillin/streptomycin (Cellgro-Mediatech; Manassas, Va.). Cells were harvested and re-suspended in FACS buffer (DPBS buffer supplemented with 1% bovine serum albumin). […] Cells were washed twice with ice-cold FACS buffer and incubated with 5 ug/ml Alexa 647 labeled donkey anti-human IgG antibody (Jackson Immune-Research) on ice for another 60 mins. Unstained cells and cells stained with secondary antibody alone were used as controls. Samples were then washed twice using FACS buffer and analyzed using a BD FACS Canto system. Mean fluorescence intensities were fitted using non-linear regression analysis with one site specific binding equation on GraphPad Prism. Data was expressed as geometric mean fluorescent intensity vs. antibody concentration in nM.
(§3) Each of Conjugates A-F was evaluated for the ability to bind and kill cells expressing CD74. Cell lines tested included B-lymphoma, multiple myeloma, and leukemia cells. Controls included unconjugated anti-CD74 antibody.

CD74 on ARP-1 (MM) cells = target: T2, CD74 on ARP-1 (MM) cells (Homo sapiens, UniProt P04233); test: Cell binding assay (FACS), ARP-1 (MM); conditions: geometric mean fluorescent intensity, NB = no binding
T2 construct: endogenous in cells; host or cells: RPMI-6666, SU-DHL-6, ARD, ARP-1, RPMI-8226, OPM-2, BDCM, SUP-B15, JVM-13, K562
T2 sequence (P04233 1-296): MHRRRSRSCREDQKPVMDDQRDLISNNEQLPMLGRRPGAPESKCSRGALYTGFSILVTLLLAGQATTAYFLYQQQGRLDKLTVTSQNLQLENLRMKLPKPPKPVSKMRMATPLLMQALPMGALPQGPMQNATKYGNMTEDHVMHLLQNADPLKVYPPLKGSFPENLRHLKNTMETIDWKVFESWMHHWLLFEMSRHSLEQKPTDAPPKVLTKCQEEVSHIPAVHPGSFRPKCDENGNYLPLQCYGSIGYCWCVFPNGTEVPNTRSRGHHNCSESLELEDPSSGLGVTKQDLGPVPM
Protocol: as §1
as §2, with “Cells” for “Cell lines were maintained in RPMI, high glucose (Cellgro-Mediatech; Manassas, Va.) supplemented with 20% heat-inactivated fetal bovine serum (Hyclone; Thermo Scientific; Waltham, Mass.), 2 mM glutamax (Invitrogen; Carlsbad, Calif.) and 1×Pencillin/streptomycin (Cellgro-Mediatech; Manassas, Va.). Cells”
as §1

CD74 on BDCM (AML) cells = target: T3, CD74 on BDCM (AML) cells (Homo sapiens, UniProt P04233); test: Cell binding assay (FACS), BDCM (AML); conditions: NB = no binding
T3 construct: endogenous in cells; host or cells: RPMI-6666, SU-DHL-6, ARD, ARP-1, RPMI-8226, OPM-2, BDCM, SUP-B15, JVM-13, K562
T3 sequence (P04233 1-296): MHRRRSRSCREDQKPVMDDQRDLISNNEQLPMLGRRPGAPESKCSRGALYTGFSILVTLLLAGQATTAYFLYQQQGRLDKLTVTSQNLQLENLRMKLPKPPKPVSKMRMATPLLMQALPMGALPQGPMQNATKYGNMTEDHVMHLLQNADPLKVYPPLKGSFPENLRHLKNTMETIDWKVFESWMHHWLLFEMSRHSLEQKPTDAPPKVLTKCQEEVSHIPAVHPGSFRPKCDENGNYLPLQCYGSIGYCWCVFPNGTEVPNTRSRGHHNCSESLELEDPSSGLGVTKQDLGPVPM
Protocol: as §1, §2, §3

[2] = target: T4, CD74 on SU-DHL-6 (NHL) cells (Homo sapiens, UniProt P04233); test: Cell binding assay (FACS), SU-DHL-6 (NHL); conditions: NB = no binding
T4 construct: endogenous in cells; host or cells: SU-DHL-6
T4 sequence (P04233 1-296): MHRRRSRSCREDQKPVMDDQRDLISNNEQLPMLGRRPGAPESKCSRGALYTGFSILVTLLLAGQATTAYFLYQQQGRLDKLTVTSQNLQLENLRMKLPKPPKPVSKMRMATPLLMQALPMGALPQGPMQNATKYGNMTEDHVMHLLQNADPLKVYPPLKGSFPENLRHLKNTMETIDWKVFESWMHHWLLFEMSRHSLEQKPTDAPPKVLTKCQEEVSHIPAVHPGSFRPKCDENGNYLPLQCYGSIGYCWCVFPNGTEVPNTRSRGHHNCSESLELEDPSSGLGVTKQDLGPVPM
Protocol: as §1, §2, §3

CD74 on ARD (MM) cells = target: T5, CD74 on ARD (MM) cells (Homo sapiens, UniProt P04233); test: Cell binding assay (FACS), ARD (MM); conditions: NB = no binding
T5 construct: endogenous in cells; host or cells: RPMI-6666, SU-DHL-6, ARD, ARP-1, RPMI-8226, OPM-2, BDCM, SUP-B15, JVM-13, K562
T5 sequence (P04233 1-296): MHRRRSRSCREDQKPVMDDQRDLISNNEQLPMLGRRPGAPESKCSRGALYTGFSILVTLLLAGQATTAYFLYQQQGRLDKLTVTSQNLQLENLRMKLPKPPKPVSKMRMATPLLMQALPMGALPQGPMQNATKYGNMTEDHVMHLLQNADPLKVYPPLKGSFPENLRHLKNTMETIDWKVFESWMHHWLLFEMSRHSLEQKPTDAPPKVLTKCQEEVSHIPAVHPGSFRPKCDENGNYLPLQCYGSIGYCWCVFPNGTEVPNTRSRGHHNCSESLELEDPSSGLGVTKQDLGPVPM
Protocol: as §1, §2, §3

[3] = target: T6, CD74 on SUP-B15 (ALL) cells (Homo sapiens, UniProt P04233); test: Cell binding assay (FACS), SUP-B15 (ALL); conditions: NB = no binding
T6 construct: endogenous in cells; host or cells: RPMI-6666, SU-DHL-6, ARD, ARP-1, RPMI-8226, OPM-2, BDCM, SUP-B15, JVM-13, K562
T6 sequence (P04233 1-296): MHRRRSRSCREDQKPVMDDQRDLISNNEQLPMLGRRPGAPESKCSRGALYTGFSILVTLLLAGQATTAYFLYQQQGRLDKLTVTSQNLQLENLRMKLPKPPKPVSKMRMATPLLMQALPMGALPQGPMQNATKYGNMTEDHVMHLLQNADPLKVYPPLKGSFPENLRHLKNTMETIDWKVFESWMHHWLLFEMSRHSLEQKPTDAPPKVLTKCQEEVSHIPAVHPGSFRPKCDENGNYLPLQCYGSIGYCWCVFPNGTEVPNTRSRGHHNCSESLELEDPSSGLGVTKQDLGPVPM
Protocol: as §1, §2, §3

[4] = target: T7, CD74 on RPMI-6666 (HL) cells (Homo sapiens, UniProt P04233); test: Cell binding assay (FACS), RPMI-6666 (HL); conditions: NB = no binding
T7 construct: endogenous in cells; host or cells: RPMI-6666, SU-DHL-6, ARD, ARP-1, RPMI-8226, OPM-2, BDCM, SUP-B15, JVM-13, K562
T7 sequence (P04233 1-296): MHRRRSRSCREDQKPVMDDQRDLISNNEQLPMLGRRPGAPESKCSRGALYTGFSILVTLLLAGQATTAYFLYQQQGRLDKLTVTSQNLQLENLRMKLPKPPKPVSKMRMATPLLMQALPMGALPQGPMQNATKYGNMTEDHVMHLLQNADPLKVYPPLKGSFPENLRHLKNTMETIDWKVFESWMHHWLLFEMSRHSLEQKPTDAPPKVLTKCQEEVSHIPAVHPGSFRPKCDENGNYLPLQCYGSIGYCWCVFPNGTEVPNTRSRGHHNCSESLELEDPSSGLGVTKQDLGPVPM
Protocol: as §1, §2, §3

[5] = target: T8, CD74 on JVM-13 (CLL) cells (Homo sapiens, UniProt P04233); test: Cell binding assay (FACS), JVM-13 (CLL); conditions: NB = no binding
T8 construct: endogenous in cells; host or cells: RPMI-6666, SU-DHL-6, ARD, ARP-1, RPMI-8226, OPM-2, BDCM, SUP-B15, JVM-13, K562
T8 sequence (P04233 1-296): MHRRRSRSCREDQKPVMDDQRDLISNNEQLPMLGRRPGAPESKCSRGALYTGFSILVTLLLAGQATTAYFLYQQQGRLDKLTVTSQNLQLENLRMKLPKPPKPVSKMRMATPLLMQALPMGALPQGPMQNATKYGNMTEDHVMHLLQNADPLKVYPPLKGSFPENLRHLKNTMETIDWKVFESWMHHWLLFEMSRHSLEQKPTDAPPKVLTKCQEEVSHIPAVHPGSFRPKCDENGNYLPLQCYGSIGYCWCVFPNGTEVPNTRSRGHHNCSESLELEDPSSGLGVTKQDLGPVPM
Protocol: as §1, §2, §3

[6] = FACS, geometric mean fluorescent intensity

B1: anti-CD74 (antibody, V domains shown)
VH: QVQLVESGGGVVQPGRSLRLSCAASGFNFSDYGMHWVRQAPGKGLEWVAVIWYDGSISYYADSVKGRFTISRDNSKNTLYLQMNSLRAEDTAVYYCARGGTVEHGAVYGTDVWGQGTTVTVSS
VL: DIQMTQSPSSVSASVGDRVTITCRASQGIGSWLAWYQQKPGKAPKLLIYAADRLQSGVPSRFSGSGSGTDFTLTISSLQPEDFATYYCQQYHTYPLTFGGGTKVEIK
For B1, the Bmax [1, 6] was 119, the Kd ([1]; cell binding) was 3.6 nM and the Bmax (CD74 on ARP-1 (MM) cells) was 341. It also gave a Bmax (CD74 on BDCM (AML) cells; [6]) of 3059, a Kd (CD74 on BDCM (AML) cells; cell binding) of 4.5 nM and a Bmax [2, 6] of 1565. The Kd ([2]; cell binding) was 2 nM, the Bmax (CD74 on ARD (MM) cells; [6]) was 190 and the Kd (CD74 on ARD (MM) cells; cell binding) was 2.6 nM. The Bmax [3, 6] was 680, the Kd ([3]; cell binding) was 3.5 nM and the Bmax [4, 6] was 3879. The Kd ([4]; cell binding) was 2.3 nM, the Bmax [5, 6] was 447 and the Kd ([5]; cell binding) was 2.5 nM.
